This data set deals with the molecule itself. Kind of data set: AUC.

B1: SARS-CoV main protease, full-length wild type, C-terminal His6 (enzyme)
chain: SGFRKMAFPSGKVEGCMVQVTCGTTTLNGLWLDDTVYCPRHVICTAEDMLNPNYEDLLIRKSNHSFLVQAGNVQLRVIGHSMQNCLLRLKVDTSNPKTPKYKFVRIQPGQTFSVLACYNGSPSGVYQCAMRPNHTIKGSFLNGSCGSVGFNIDYDCVSFCYMHHMELPTGVHAGTDLEGKFYGPFVDRQTAQAAGTDTTITLNVLAWLYAAVINGDRWFLNRFTTTLNDFNLVAMKYNYEPLTQDHVDILGPLSAQTGIAVLDMCAALKELLQNGMNGRTILGSTILEDEFTPFDVVRQCSGVTFQ
Take B1: the dissociation constant (Kd) stood at 80 ± 5 nM and the koff stood at 0.01 ± 0.001 s⁻¹.

The term Kd denotes the equilibrium constant for the complex coming apart. Lower therefore signals a tighter complex. For orientation: koff means a measure of how fast the partners let go of each other. Higher therefore signals fast dissociation.

The record behind these values is article PMC7094404 (Archives of Biochemistry and Biophysics, 2008).
